Data as given in article PMC3597821.

T1: DmAgo2 (Drosophila melanogaster, UniProt Q9VUQ5 403-1214)
T1 sequence: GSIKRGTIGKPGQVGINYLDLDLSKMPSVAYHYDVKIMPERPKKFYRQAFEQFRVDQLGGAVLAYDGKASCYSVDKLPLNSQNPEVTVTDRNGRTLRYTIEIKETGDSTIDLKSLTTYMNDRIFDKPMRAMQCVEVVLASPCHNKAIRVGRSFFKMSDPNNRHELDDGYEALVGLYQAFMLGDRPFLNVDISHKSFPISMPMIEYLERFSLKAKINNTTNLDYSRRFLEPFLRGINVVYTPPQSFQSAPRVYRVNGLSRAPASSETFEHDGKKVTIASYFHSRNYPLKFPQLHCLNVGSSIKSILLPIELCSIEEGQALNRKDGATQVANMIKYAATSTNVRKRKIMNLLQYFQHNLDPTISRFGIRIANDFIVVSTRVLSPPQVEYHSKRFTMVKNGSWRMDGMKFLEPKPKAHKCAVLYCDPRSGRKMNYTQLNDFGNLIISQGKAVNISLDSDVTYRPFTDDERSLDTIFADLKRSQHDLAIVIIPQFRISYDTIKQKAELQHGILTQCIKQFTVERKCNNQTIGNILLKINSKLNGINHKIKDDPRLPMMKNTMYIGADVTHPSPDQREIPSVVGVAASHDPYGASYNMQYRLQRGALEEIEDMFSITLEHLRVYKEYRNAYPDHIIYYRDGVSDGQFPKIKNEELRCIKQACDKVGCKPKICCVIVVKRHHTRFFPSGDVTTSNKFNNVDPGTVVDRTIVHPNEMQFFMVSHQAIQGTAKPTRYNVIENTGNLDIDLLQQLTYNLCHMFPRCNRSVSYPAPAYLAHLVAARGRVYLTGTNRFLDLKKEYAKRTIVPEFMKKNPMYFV

B1: bantam guide / 43-nt target (1-12 match) (dsRNA)
RNA 1: UGAGAUCAUUUUGAAAGCUGAUU
RNA 2: AGUUCUUAAGUUAGUCGAAACAAAAUGAUCUCACAUAGGCUUA
modifications: target printed as DNA letters, assayed as RNA

How the values were obtained:
DmAgo2 = biological target: T1, DmAgo2; experiment: competitive double filter binding
DmAgo1 WT = DmAgo1 WT (Drosophila melanogaster, UniProt A1Z9J5 1-950); experiment: filter binding

Binder | Kd (DmAgo2) [nM] | binding result (DmAgo1 WT)
UGAGAUCAUUUUGAAAGCUGAUU (ssRNA, 5' phosphate on labeled RNA (PNK)) [bantam miRNA 23 nt] | 10.7 ± 1 | 
B1 |  | binds
